Target: T1, gp41 HR1 fragment, Ala541 to Leu581 (chain of gp41_(541–665)) (HIV-1 HXB2 group M subtype B, UniProt P04578 541-581)
T1 construct: HIV-1 HXB2 (group M subtype B) envelope glycoprotein, gp41 subunit, residues Ala541 to Leu581 (heptad repeat 1); also called core fragment HR1; source: E. coli Rosetta (DE3), fusion protein; pellets of HR1 and HR2 expressing bacteria mixed before lysis; complex purified (amylose, TEV digestion, Ni2+, anion exchange, SEC); not shown: Flag-tag (DDDDK), N-terminal, kept
Assay: SEC; purified complexes on a Superdex 200 (S200) column in buffer A (0.02 M Tris pH 8.0, 0.1 M NaCl); SDS-PAGE of the peak; the complexes were assembled by mixing bacteria before lysis and co-purified
Conditions: both partners purified

T1 sequence (P04578 541-581): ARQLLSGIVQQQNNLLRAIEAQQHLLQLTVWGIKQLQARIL

B1: gp41 HR2 fragment, Met628 to Lys665 as printed (chain of gp41_(541–665)) (domain or fragment)
chain: MEWDREINNYTSLIHSLIEESQNQQEKNEQELLELDK
notes: HIV-1 HXB2 (group M subtype B) envelope glycoprotein, gp41 subunit, heptad repeat 2; also called core fragment HR2; source: E. coli Rosetta (DE3), fusion protein; pellets of HR1 and HR2 expressing bacteria mixed before lysis (HR2 in excess); complex purified (amylose, TEV digestion, Ni2+, anion exchange, SEC); not shown: Flag-tag (DDDDK), N-terminal, kept
  binding result: binds
